# Results taken from publication PMC2722949 (Journal of molecular biology, 2009).
# Where no end group is shown, it is not given here. [ ]: non-standard residue; d: D form. pY = N[C@@H](Cc1ccc(OP(=O)(O)O)cc1)C(=O)O
# B1: Btk SH2 phospho-peptide ligand (GDGpYEEISPLLL) (peptide)
# peptide: GDG[pY]EEISPLLL
# B2: phospho-SLP76 peptide (ADpYEPP) (peptide)
# peptide: AD[pY]EPP
# Experiments:
# Assay in all cases: NMR titration
# Btk SH2 domain S371P = Btk SH2 domain S371P (UniProt Q06187 270-387, S371P)
# [1] = molecular target: Btk SH2 domain, wild type (UniProt Q06187 270-387)
# Btk SH2 domain H364D = Btk SH2 domain H364D (UniProt Q06187 270-387, H364D)
# [2] = molecular target: Itk SH2 domain, wild type (mouse (the paper calls its residue numbers 'mouse numbering'))
# [3] = molecular target: Itk SH2 domain E308A/K309A double mutant (mouse (the paper calls its residue numbers 'mouse numbering'))
# Sequence of Btk SH2 domain H364D (Q06187 270-387 H364D): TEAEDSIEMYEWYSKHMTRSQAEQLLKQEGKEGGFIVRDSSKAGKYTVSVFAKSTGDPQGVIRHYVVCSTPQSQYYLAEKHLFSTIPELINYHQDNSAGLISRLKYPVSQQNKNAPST
# Sequence of Btk SH2 domain S371P (Q06187 270-387 S371P): as the sequence (Q06187 270-387 H364D) above, with D95H, S102P counted along it
# Sequence of Btk SH2 domain, wild type (Q06187 270-387): as the sequence (Q06187 270-387 H364D) above, with D95H counted along it
Binder,Kd (Btk SH2 domain S371P) [µM],Kd [1] [µM],Kd (Btk SH2 domain H364D) [µM],Kd [2] [µM],Kd [3] [µM]
B1,600 ± 110,450 ± 40,500 ± 200,,
B2,,,,380,480
